Data published in patent publication US20250154548A1, “CONTROL OF ENZYMATIC NUCLEIC ACID SYNTHESIS VIA ELECTROCHEMICAL MEANS” (The Charles Stark Draper Laboratory, Inc., priority 2023, published 2025).

Assay: Proteinase K activity as a function of pH and after pH neutralization
Format: biochemical
Conditions: for recovery of proteinase K activity after neutralization: after exposure to highly acidic (pH 3.5) or basic (pH 12) conditions, neutralized to pH 7 to 7.5
Source text: FIGS. 1A-1C provide information on activating proteinase K at different pH conditions.
Another method of deblocking after nucleotide addition using a conjugated enzyme is to digest the protein around the extended DNA. Proteinase K (ProK) is a hydrolase that digests proteins at aliphatic and aromatic residues making it a broad-spectrum protease^1 that could be used to fully digest TdT releasing the extended DNA for the next round of addition. This enzymatic cleavage step could potentially be spatially controlled via an electrochemically driven pH change, as depicted in FIG. 1A. […] A voltage would then be applied to electrodes near the DNA site to be cleaved for the next addition. This would cause a shift in the pH near this active electrode that would re-activate ProK to digest nearby TdT molecules, deblocking the DNA for subsequent nucleotide addition. ProK has some natural pH sensitivity^1-2 and could be further engineered to shift the activity profile into a desirable pH range.

B1: Proteinase K: hydrolase that digests proteins at aliphatic and aromatic residues, a broad-spectrum protease (protein, UniProt P06873 106-384, looked up)
Proteinase K: AAQTNAPWGLARISSTSPGTSTYYYDESAGQGSCVYVIDTGIEASHPEFEGRAQMVKTYYYSSRDGNGHGTHCAGTVGSRTYGVAKKTQLFGVKVLDDNGSGQYSTIIAGMDFVASDKNNRNCPKGVVASLSLGGGYSSSVNSAAARLQSSGVMVAVAAGNNNADARNYSPASEPSVCTVGASDRYDRRSSFSNYGSVLDIFGPGTSILSTWIGGSTRSISGTSMATPHVAGLAAYLMTLGKTTAASACRYIADTANKGDLSNIPFGTVNLLAYNNYQA
- recovery of proteinase K activity after neutralization: recovers
- recovery of proteinase K activity after neutralization (listed as ProK): activity can be recovered
- proteinase K activity (at pH 12.5): negligible activity
- proteinase K activity (relative to activity at pH 7.3) (below pH 5 and above pH 10): complete dropoff in activity
